Laboratory results as given in US8840891 (RSR, dated 2014).
Like-named read-outs stand apart in the source and are kept apart here.

Legend:
Assay in all cases: cell-based or functional assay
[1] = molecular target: wild type human TSHR (human) (UniProt P16473)
[2] = molecular target: TSHR with Phe134 mutated to Alanine (human) (UniProt P16473)
[3] = molecular target: TSHR with Asp151 mutated to Alanine (human) (UniProt P16473)
[4] = molecular target: wild type human TSHR (human) (UniProt P16473); remark: listed apart in the source
[5] = molecular target: TSHR with Thr104 mutated to Alanine (human) (UniProt P16473)
[6] = molecular target: wild type human TSHR (human) (UniProt P16473); remark: listed apart in the source

Chain of 5C9 IgG (antibody) (VH): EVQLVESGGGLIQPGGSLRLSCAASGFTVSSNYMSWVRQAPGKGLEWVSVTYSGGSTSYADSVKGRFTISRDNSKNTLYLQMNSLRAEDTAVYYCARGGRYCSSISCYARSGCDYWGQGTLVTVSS
Chain of 5C9 IgG (antibody) (VL): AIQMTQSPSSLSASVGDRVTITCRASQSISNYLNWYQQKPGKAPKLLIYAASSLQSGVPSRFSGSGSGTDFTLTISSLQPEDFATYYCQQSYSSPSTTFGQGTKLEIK

## 5C9 IgG (antibody)
[1]
  cyclic AMP; 5C9 0.01 µg/mL + TSH (fmol/cell well): 13600
  cyclic AMP; 5C9 0.1 µg/mL + TSH (fmol/cell well): 8700
  cyclic AMP; 5C9 1.0 µg/mL + TSH (fmol/cell well): 4540
  cyclic AMP; 5C9 10 µg/mL + TSH (fmol/cell well): 2390
  cyclic AMP; 5C9 100 µg/mL + TSH (fmol/cell well): 1390
  cyclic AMP; 5C9 100 µg/mL only (fmol/cell well): 212
[2]
  Mutated/wild type (%); 5C9 0.01 µg/mL + TSH: 117%
  Mutated/wild type (%); 5C9 0.1 µg/mL + TSH: 73%
  Mutated/wild type (%); 5C9 1.0 µg/mL + TSH: 43%
  Mutated/wild type (%); 5C9 10 µg/mL + TSH: 44%
  Mutated/wild type (%); 5C9 100 µg/mL + TSH: 77%
  Mutated/wild type (%); 5C9 100 µg/mL only: 159%
  cyclic AMP; 5C9 0.01 µg/mL + TSH (fmol/cell well): 15900
  cyclic AMP; 5C9 0.1 µg/mL + TSH (fmol/cell well): 6370
  cyclic AMP; 5C9 1.0 µg/mL + TSH (fmol/cell well): 1940
  cyclic AMP; 5C9 10 µg/mL + TSH (fmol/cell well): 1060
  cyclic AMP; 5C9 100 µg/mL + TSH (fmol/cell well): 1070
  cyclic AMP; 5C9 100 µg/mL only (fmol/cell well): 337
[3]
  Mutated/wild type (%); 5C9 0.01 µg/mL + TSH: 112%
  Mutated/wild type (%); 5C9 0.1 µg/mL + TSH: 143%
  Mutated/wild type (%); 5C9 1.0 µg/mL + TSH: 465%
  Mutated/wild type (%); 5C9 10 µg/mL + TSH: 599%
  Mutated/wild type (%); 5C9 100 µg/mL + TSH: 162%
  Mutated/wild type (%); 5C9 100 µg/mL only: 224%
  cyclic AMP; 5C9 0.01 µg/mL + TSH (fmol/cell well): 12600
  cyclic AMP; 5C9 0.1 µg/mL + TSH (fmol/cell well): 9960
  cyclic AMP; 5C9 1.0 µg/mL + TSH (fmol/cell well): 6450
  cyclic AMP; 5C9 10 µg/mL + TSH (fmol/cell well): 2280
  cyclic AMP; 5C9 100 µg/mL + TSH (fmol/cell well): 1540
  cyclic AMP; 5C9 100 µg/mL only (fmol/cell well): 395
[4]
  cyclic AMP; 5C9 0.01 µg/mL + TSH (fmol/cell well): 11200
  cyclic AMP; 5C9 0.1 µg/mL + TSH (fmol/cell well): 6950
  cyclic AMP; 5C9 1.0 µg/mL + TSH (fmol/cell well): 1390
  cyclic AMP; 5C9 10 µg/mL + TSH (fmol/cell well): 380
  cyclic AMP; 5C9 100 µg/mL + TSH (fmol/cell well): 945
  cyclic AMP; 5C9 100 µg/mL only (fmol/cell well): 176
[5]
  Mutated/wild type (%); 5C9 0.01 µg/mL + TSH: 95%
  Mutated/wild type (%); 5C9 0.1 µg/mL + TSH: 134%
  Mutated/wild type (%); 5C9 1.0 µg/mL + TSH: 168%
  Mutated/wild type (%); 5C9 10 µg/mL + TSH: 172%
  Mutated/wild type (%); 5C9 100 µg/mL + TSH: 140%
  Mutated/wild type (%); 5C9 100 µg/mL only: 135%
  cyclic AMP; 5C9 0.01 µg/mL + TSH (fmol/cell well): 11700
  cyclic AMP; 5C9 0.1 µg/mL + TSH (fmol/cell well): 9510
  cyclic AMP; 5C9 1.0 µg/mL + TSH (fmol/cell well): 6200
  cyclic AMP; 5C9 10 µg/mL + TSH (fmol/cell well): 3090
  cyclic AMP; 5C9 100 µg/mL + TSH (fmol/cell well): 3110
  cyclic AMP; 5C9 100 µg/mL only (fmol/cell well): 264
[6]
  cyclic AMP; 5C9 0.01 µg/mL + TSH (fmol/cell well): 12300
  cyclic AMP; 5C9 1.0 µg/mL + TSH (fmol/cell well): 3700
  cyclic AMP; 5C9 10 µg/mL + TSH (fmol/cell well): 1800
  cyclic AMP; 5C9 100 µg/mL + TSH (fmol/cell well): 2220
  cyclic AMP; 5C9 100 µg/mL only (fmol/cell well): 195
